According to publication PMC3666556:
Read-outs that look alike come from different tables or passages of the source.

Assays:
Assay in all cases: cross-linking
[1] = target: K118C-apoA-I (human) (UniProt P02647)
[2] = target: K118C-apoA-I (human) (UniProt P02647); remark: listed apart in the source
[3] = target: K140C-apoA-I (human)
[4] = target: K140C-apoA-I (human); remark: listed apart in the source
[5] = target: G129C-apoA-I (human)
[6] = target: G129C-apoA-I (human); remark: listed apart in the source

Substance: K118C-apoA-I (from UniProt P02647 19-267) (natural protein)
- percent homodimer [1]: 17%
- percent homodimer [2]: 4%

Substance: K140C-apoA-I (natural protein)
- percent homodimer [3]: 65%
- percent homodimer [4]: 41%

Substance: G129C-apoA-I (natural protein)
- percent homodimer [5]: 38%
- percent homodimer [6]: 22%
